The assay deals with T1, full-length p53 (UniProt P04637 1-393).
T1 construct: A fluorescein-labelled form was used in the ubiquitination assay only
As to the kind of experiment: SPR; p53 binding domain of MDM2 immobilised on a CM5 chip by amine coupling; full-length p53 at 0.125 to 2 μM flowed over; BIAcore 3000. The conditions noted are these: both partners purified. For orientation: SPR reads the build-up and loss of mass on a sensor chip optically.

For orientation: Kd means a measure of binding affinity in units of concentration. High values mean a looser complex, low ones a tighter complex.

T1 sequence (P04637 whole entry): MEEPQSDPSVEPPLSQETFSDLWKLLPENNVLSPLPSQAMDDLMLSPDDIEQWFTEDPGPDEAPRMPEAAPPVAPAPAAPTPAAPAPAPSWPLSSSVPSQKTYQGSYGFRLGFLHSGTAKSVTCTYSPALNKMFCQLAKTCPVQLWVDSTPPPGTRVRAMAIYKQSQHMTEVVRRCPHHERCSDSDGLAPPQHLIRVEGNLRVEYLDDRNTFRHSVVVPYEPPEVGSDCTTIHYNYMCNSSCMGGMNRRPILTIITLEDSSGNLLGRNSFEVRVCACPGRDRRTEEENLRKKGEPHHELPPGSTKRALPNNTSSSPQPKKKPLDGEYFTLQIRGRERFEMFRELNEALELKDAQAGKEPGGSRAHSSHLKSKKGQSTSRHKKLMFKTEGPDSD

B1: MDM2 p53 binding domain (domain or fragment)
chain: TLVRPKPLLLKLLKSVGAQKDTYTMKEVLFYLGQYIMTKRLYDEKQQHIVYCSNDLLGDLFGVPSFSVKEHRKIYTMIYRNLVV
Take B1: the Kd was 600 ± 100 nM.

Values taken from paper PMC7881117 (Nature Communications, 2021).
